Experimental data as given in the supplement of paper PMC10567573.

B1: RIPK4 (parent)
chain: VSVNAQTLDGRTPLHLAAQRGHYR
B2: SLC25A39 (parent)
chain: LTSDLYAPMVAGALARLGTVTVIS

Variants of: B1
Assay: protein stability index of a GFP-peptide fusion (GPS, HEK-293T) (PSI 1-6); higher = more stable
Details: c terminus: a fixed tail appended
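Further: lentivirally expressed fusions sorted by FACS into six bins by GFP to DsRed ratio, PSI derived from sequencing read proportions per bin multiplied by bin number.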

Protein stability index: each site, then its substitutions
R24: H 2.69; V 2.43; I 2.05; W 2.48; F 2.41; D 3.3; Y 2.66; N 2.98; Q 2.82; S 3.01; A 2.81; C 2.2
T7: N 3.64; K 3.36; F 2.11; C 2.8; W 2.32; V 3.23; Q 4.04; D 3.77; R 3.32; M 2.98; L 3.2
H22: Q 3.56; V 3.79; F 2.96; I 2.83; T 3.57; W 2.23; A 3.3; S 3.29; K 3.89; E 3.27; G 4.53; M 2.96; Y 2.47; C 2.98
L14: Y 3.21; W 2.88; K 3.96; H 3.96; E 4.47; I 3.39; V 3.4; P 4; N 3.92; C 1.96; T 3.5; F 3.1; D 3.62; G 3.52; M 3.26
V3: G 3.9; F 2.96; C 3.12; N 4.49; K 3.6; S 3.97; A 3.85; M 3.73; P 3.83; D 4.13
A5: L 2.76; S 3.37; K 3.69; R 2.94; G 3.02; I 2.19; C 3.88; W 2.83; F 2.61; M 2.77; Y 3.1; T 3.52; V 2.64; N 3.53; H 3.36
Q6: D 3.93; Y 2.59; R 3.02; M 2.87; P 3.96; E 2.95; T 3.44; V 2.68; G 3.13; I 2.69; W 2.49; N 3.03
G21: C 2.44; N 2.88; T 2.88; I 2.24; L 2.94; Q 3.35; R 3.47; Y 2.81; E 3.58; V 2.93; D 2.86
R20: N 2.71; A 3.02; V 2.85; S 2.65; I 2.58; M 2.29; Q 3.12; F 2.14; K 3
T12: I 3.1; W 2.82; S 3.35; D 3.68; M 3.19; L 2.89; K 3.72; F 2.61; R 3.23; Q 3.57; C 2.81
D9: W 2.35; L 2.81; S 3.04; M 2.62; E 3.78; T 3.22; V 2.9; H 3.15; F 2.25; R 3.31; N 3.33; K 2.79
A17: M 3.31; H 3.27; L 3.02; E 3.22; D 3.33; R 3.11; S 3.34; K 3.41; Q 3.36; F 2.26; T 3.45; I 2.45; Y 2.54
R11: C 2.91; P 3.38; E 3.78; S 3.12; L 2.9; I 2.73; F 2.65; V 2.97; M 2.77; N 3.42
N4: L 2.69; Y 3.12; D 3.86; P 3.42; I 2.44; F 2.06; R 3.21; G 3.3
A18: Y 2.19; Q 3.29; P 3.21; N 3.46; M 2.42; S 3.38; C 2.61; V 2.97; H 3.13; D 3.31; I 2.75; W 2.09; E 3.13; F 1.89; K 2.58; R 3.32
Q19: A 3.44; K 3.95; H 3.27; G 3.53; E 3.18; I 2.59; R 4.04; C 2.97; D 3.12; Y 2.63; V 2.28; L 2.52; T 3.58
H15: S 3.74; P 3.94; A 3.79; K 3.24; W 2.62; C 3.01; Q 4.11; M 2.78; N 3.64; L 3.24; I 2.79; E 3.49; Y 2.56; D 3.93
L8: Q 4.05; V 3.92; A 3.92; N 3.94; K 3.58; R 3.37; T 3.77; G 4.26; C 3.33; P 3.95
G10: T 3.21; M 3.12; C 3.05; N 3.29; S 3.57; V 3.32; W 2.48; A 3.2; D 3.69; R 3.55; H 3
V1: T 3.78; M 4.21; N 4.12; L 3.98; Y 3.59; P 3.85; F 3.39; S 3.62; A 3.94; K 3.74; R 4.06; W 3.5; I 3.54; Q 3.99; C 2.54
S2: C 2.93; R 3.33; F 2.57; D 4.08; Q 3.22; N 3.73; M 2.89; Y 2.82; H 2.42; W 2.3; E 3.27; K 3.41; L 2.86
Y23: D 4.49; L 3.51; V 4; Q 3.96; C 3.43; P 4.11; T 4.12; I 3.39; K 4.12; G 4.25; M 4.03; A 3.92; N 4.17
P13: T 2.92; V 2.84; D 3.56; K 2.78; W 1.75; Q 3.15; M 2.42; I 2.17; N 3.38; A 3.33; C 2.22; H 2.9; E 3.26; F 2.34
L16: M 3.34; T 3.64; E 4.29; P 3.73; H 3.28; N 3.97; W 3.09; I 3.42; V 3.5; D 3.8; S 4.04; Y 3.45; C 3.19

Variants of: B2
Assay: as above
Details: c terminus: a fixed tail appended

Protein stability index, by site and new letter:
T21: W 3.97; V 2.03
S24: R 2.26; N 1.91; Q 1.45; W 3.06; H 3.6; P 2.21; D 3.34; T 4.15; C 3.08; K 1.61; G 3; E 2.61; I 1.56
I23: Y 2.31; E 2.54; R 1.87; N 1.98; S 1.95; K 2.04; L 2.75; D 2.3; P 1.8; Q 2.56; G 2.18
V22: T 2.04; P 1.61; N 1.11; L 3.04; C 3.43; Y 1.6; K 1.74; D 1.49; F 2.47; A 2.58; E 2.08; R 2.82; S 2.31
